Positions count from the first letter of the chain named. Numbers in names are those of the source.
Tests used:
Settings in all cases: both partners purified
[1] = molecular target: T1, nonsulfated human anionic trypsin purified from E. coli (human, UniProt P07478 24-247); experiment: KD calculated from the rate constants (association and dissociation rate assays); KD(calc): equilibrium dissociation constant calculated from kon and koff of the activity-based rate assays
T1 construct: human anionic trypsin, the active enzyme cut from anionic trypsinogen (Hu2) by enteropeptidase; Not sulfated on Tyr154; also called Hu2 (E. coli); Hu2

[2] = molecular target: T2, native sulfated human anionic trypsin purified from pancreatic juice (human, UniProt P07478 24-247, sulfated on Tyr154); experiment: as above
T2 construct: human anionic trypsin, the active enzyme cut from anionic trypsinogen by enteropeptidase; also called Hu2-SO4 (native); Hu2-SO4

[3] = molecular target: T1, nonsulfated human anionic trypsin …; experiment: discontinuous association rate assay (residual trypsin activity); 50 pM trypsin mixed with 500 pM SPINK1, 0.1 M Tris-HCl (pH 8.0), 150 mM NaCl, 1 mM CaCl2, 0.05% Tween 20, 23 °C; kon from the pseudo-first-order rate constant divided by the inhibitor concentration
[4] = molecular target: T2, native sulfated human anionic trypsin …; experiment: as above
[5] = molecular target: T1, nonsulfated human anionic trypsin …; experiment: dissociation rate assay (recovery of trypsin activity after dilution of the complex); complex of 11 nM SPINK1 and 10 nM trypsin formed for 1 h at 23 °C, diluted to 50-200 pM with 0.6 mM Z-Gly-Pro-Arg-AMC, 0.1 M Tris-HCl (pH 8.0), 150 mM NaCl, 1 mM CaCl2, 0.05% Tween 20, room temperature, followed for 1 h
[6] = molecular target: T2, native sulfated human anionic trypsin …; experiment: as above
[7] = molecular target: T1, nonsulfated human anionic trypsin …; experiment: equilibrium binding assay (free trypsin activity on a fluorogenic substrate); fixed trypsin incubated with increasing SPINK1, 0.2 ml, 0.1 M Tris-HCl (pH 8.0), 150 mM NaCl, 1 mM CaCl2, 0.05% Tween 20, 15 h; free trypsin measured with Z-Gly-Pro-Arg-AMC; apparent KD, global fit of at least three experiments
[8] = molecular target: T2, native sulfated human anionic trypsin …; experiment: as above
[9] = molecular target: T3, nonsulfated human anionic trypsin purified from the conditioned medium of transfected HEK 293T cells (human, UniProt P07478 24-247); experiment: as above
T3 construct: human anionic trypsin, the active enzyme cut from anionic trypsinogen (Hu2) by enteropeptidase; Sulfation prevented by sodium chlorate; also called Hu2 (HEK 293T); source: HEK 293T, transfected, grown with 50 mM sodium chlorate

[10] = molecular target: T4, sulfated human anionic trypsin purified from the conditioned medium of transfected HEK 293T cells (human, UniProt P07478 24-247, sulfated on Tyr154); experiment: as above
T4 construct: human anionic trypsin, the active enzyme cut from anionic trypsinogen (Hu2) by enteropeptidase; also called Hu2-SO4 (HEK 293T); source: HEK 293T, cotransfected with tyrosylprotein sulfotransferase 2

[11] = molecular target: T2, native sulfated human anionic trypsin …; experiment: as above; remark: listed apart in the source
[12] = molecular target: T2, native sulfated human anionic trypsin …; experiment: equilibrium binding assay (free trypsin activity on a fluorogenic substrate); as the equilibrium assay but K41N SPINK1 incubated with trypsin for 1 h; 0.1 M Tris-HCl (pH 8.0), 150 mM NaCl, 1 mM CaCl2, 0.05% Tween 20; apparent KD
[13] = molecular target: T1, nonsulfated human anionic trypsin …; experiment: equilibrium binding assay; equilibrium dissociation constant of ecotin on human trypsins, 15 h of incubation; further conditions not told for ecotin
[14] = molecular target: T2, native sulfated human anionic trypsin …; experiment: as above

T2 sequence (P07478 24-247): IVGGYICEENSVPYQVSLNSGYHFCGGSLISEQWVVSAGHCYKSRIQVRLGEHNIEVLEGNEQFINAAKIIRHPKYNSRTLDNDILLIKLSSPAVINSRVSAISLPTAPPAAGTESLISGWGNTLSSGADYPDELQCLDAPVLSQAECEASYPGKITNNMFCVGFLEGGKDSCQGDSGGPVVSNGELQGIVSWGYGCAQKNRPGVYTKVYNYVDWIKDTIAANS
T1 sequence (P07478 24-247): as above
T3 sequence (P07478 24-247): as above
T4 sequence (P07478 24-247): as above

B1: serine protease inhibitor Kazal type 1 (SPINK1), wildtype, C-terminal 10His tag (natural protein, human, UniProt P00995 24-79, looked up)
chain: DSLGREAKCYNELNGCTKIYDPVCGTDGNTYPNECVLCFENRKRQTSILIQKSGPC
notes: expressed from the SPINK1-minigene-1 construct with its own signal peptide; Residue numbers start at the initiator methionine; source: HEK 293T, transfected, purified from conditioned medium (nickel-nitrilotriacetic acid cartridge); not shown: 10His, C-terminal, kept
- Kd [1]: 0.1 pM
- Kd [2]: 7.5 pM
- kon [3]: 3.8e+06 M⁻¹ s⁻¹
- kon [4]: 2.4e+06 M⁻¹ s⁻¹
- koff [5]: 5e-07 s⁻¹
- koff [6]: 1.81e-05 s⁻¹
- Kd [7]: 0.3 pM
- Kd [8]: 0.0367 nM
- Kd [9]: 0.5 pM
- Kd [10]: 9 pM

B2: SPINK1 variant Q68R, C-terminal 10His tag (natural protein, human, UniProt P00995 24-79, looked up)
chain: B1 chain with Q45R
notes: also called SPINK1 Q68R; p.Q68R; source: HEK 293T, transfected, purified from conditioned medium (nickel-nitrilotriacetic acid cartridge); not shown: 10His, C-terminal, kept
- Kd [11]: 0.027 nM

B3: SPINK1 variant N37S, C-terminal 10His tag (natural protein, human, UniProt P00995 24-79, looked up)
chain: B1 chain with N14S
notes: also called SPINK1 N37S; p.N37S; source: HEK 293T, transfected, purified from conditioned medium (nickel-nitrilotriacetic acid cartridge); not shown: 10His, C-terminal, kept
- Kd [11]: 0.0214 nM

B4: SPINK1 variant I42M, C-terminal 10His tag (natural protein, human, UniProt P00995 24-79, looked up)
chain: B1 chain with I19M
notes: also called SPINK1 I42M; p.I42M; source: HEK 293T, transfected, purified from conditioned medium (nickel-nitrilotriacetic acid cartridge); not shown: 10His, C-terminal, kept
- Kd [11]: 0.258 nM

B5: SPINK1 variant K41N, C-terminal 10His tag (natural protein, human, UniProt P00995 24-79, looked up)
chain: B1 chain with K18N
notes: Its concentration was determined by SDS-PAGE and densitometry, not by active site titration; also called SPINK1 K41N; p.K41N; source: HEK 293T, transfected, purified from conditioned medium (nickel-nitrilotriacetic acid cartridge); not shown: 10His, C-terminal, kept
- Kd [12]: 1150 nM

B6: SPINK1 variant R65Q, C-terminal 10His tag (natural protein, human, UniProt P00995 24-79, looked up)
chain: B1 chain with R42Q
notes: also called SPINK1 R65Q; p.R65Q; source: HEK 293T, transfected, purified from conditioned medium (nickel-nitrilotriacetic acid cartridge); not shown: 10His, C-terminal, kept
- Kd [11]: 0.006 nM

B7: SPINK1 variant P55S, C-terminal 10His tag (natural protein, human, UniProt P00995 24-79, looked up)
chain: B1 chain with P32S
notes: also called SPINK1 P55S; p.P55S; source: HEK 293T, transfected, purified from conditioned medium (nickel-nitrilotriacetic acid cartridge); not shown: 10His, C-terminal, kept
- Kd [11]: 0.123 nM

B8: SPINK1 variant N34S, C-terminal 10His tag (natural protein, human, UniProt P00995 24-79, looked up)
chain: B1 chain with N11S
notes: also called SPINK1 N34S; p.N34S; source: HEK 293T, transfected, purified from conditioned medium (nickel-nitrilotriacetic acid cartridge); not shown: 10His, C-terminal, kept
- Kd [1]: 0.1 pM
- Kd [2]: 4.4 pM
- kon [3]: 5.1e+06 M⁻¹ s⁻¹
- kon [4]: 3.1e+06 M⁻¹ s⁻¹
- koff [5]: 4e-07 s⁻¹
- koff [6]: 1.36e-05 s⁻¹
- Kd [7]: 0.4 pM
- Kd [8]: 0.0167 nM
- Kd [9]: 0.8 pM
- Kd [10]: 6.3 pM

B9: ecotin (natural protein)
chain: not shown
notes: source: E. coli BL21(DE3), overexpressed, purified from the periplasm
- Kd [13]: 3.2 pM
- Kd [14]: 0.0195 nM
